Key:
[1] = target: CD9(ECD)-ALP conjugate (human; bovine); assay: HI-1000 capture immunoassay; primary calibrator C5, 159.87 ng/mL; run 3
[2] = target: CD9(ECD)-ALP conjugate (human; bovine); assay: HI-1000 capture immunoassay; primary calibrator C1, 1.52 ng/mL; run 1
[3] = target: CD9(FL)-ALP conjugate (human; bovine); assay: HI-1000 capture immunoassay; calibrator C5, 43.86 mU/L; run 2
[4] = target: CD9(FL)-ALP conjugate (human; bovine); assay: HI-1000 capture immunoassay; calibrator C3, 10.96 mU/L; mean of 3
[5] = target: CD9(ECD)-ALP conjugate (human; bovine); assay: HI-1000 capture immunoassay; secondary calibrator C2, 3.84 U/L; mean of 3
[6] = target: CD9(ECD)-ALP conjugate (human; bovine); assay: HI-1000 capture immunoassay; secondary calibrator C5, 387.01 U/L; run 2
[7] = target: CD9(ECD)-ALP conjugate (human; bovine); assay: HI-1000 capture immunoassay; thawed aliquot 1 of secondary calibrator C3
[8] = target: CD9(ECD)-ALP conjugate (human; bovine); assay: HI-1000 capture immunoassay; thawed aliquot 1 of secondary calibrator C5
[9] = target: CD9(FL)-ALP conjugate (human; bovine); assay: HI-1000 capture immunoassay; calibrator C1, 1.83 mU/L; run 2
[10] = target: CD9(ECD)-ALP conjugate (human; bovine); assay: HI-1000 capture immunoassay; thawed aliquot 2 of secondary calibrator C2
[11] = target: CD9(ECD)-ALP conjugate (human; bovine); assay: HI-1000 capture immunoassay; secondary calibrator C2, 3.84 U/L; run 2
[12] = target: CD9(FL)-ALP conjugate (human; bovine); assay: HI-1000 capture immunoassay; calibrator C5, 30 ng/mL; run 3
[13] = target: CD9(FL)-ALP conjugate (human; bovine); assay: HI-1000 capture immunoassay; calibrator C1, 1.0 ng/mL; run 3
[14] = target: CD9(ECD)-ALP conjugate (human; bovine); assay: HI-1000 capture immunoassay; primary calibrator C2, 4.89 ng/mL; run 3
[15] = target: CD9(ECD)-ALP conjugate (human; bovine); assay: HI-1000 capture immunoassay; thawed aliquot 1 of secondary calibrator C2
[16] = target: CD9(ECD)-ALP conjugate (human; bovine); assay: HI-1000 capture immunoassay; thawed aliquot 3 of secondary calibrator C4
[17] = target: CD9(FL)-ALP conjugate (human; bovine); assay: HI-1000 capture immunoassay; calibrator C2, 5.48 mU/L; run 1
[18] = target: CD9(FL)-ALP conjugate (human; bovine); assay: HI-1000 capture immunoassay; calibrator C2, 3.7 ng/mL; run 1
[19] = target: CD9(FL)-ALP conjugate (human; bovine); assay: HI-1000 capture immunoassay; calibrator C3, 10.96 mU/L; run 3
[20] = target: CD9(FL)-ALP conjugate (human; bovine); assay: HI-1000 capture immunoassay; calibrator C5, 30 ng/mL; run 1

Sequence of CD9(FL)-ALP conjugate (human; bovine) (chain, as listed by the source, chain 1 of 2): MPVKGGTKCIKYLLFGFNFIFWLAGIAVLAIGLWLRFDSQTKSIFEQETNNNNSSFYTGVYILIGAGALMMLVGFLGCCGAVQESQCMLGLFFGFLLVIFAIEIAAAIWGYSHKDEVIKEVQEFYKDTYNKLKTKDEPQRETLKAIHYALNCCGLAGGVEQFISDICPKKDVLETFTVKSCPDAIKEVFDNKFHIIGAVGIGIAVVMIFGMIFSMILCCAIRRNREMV
Sequence of CD9(FL)-ALP conjugate (human; bovine) (P19111 20-506, chain 2 of 2): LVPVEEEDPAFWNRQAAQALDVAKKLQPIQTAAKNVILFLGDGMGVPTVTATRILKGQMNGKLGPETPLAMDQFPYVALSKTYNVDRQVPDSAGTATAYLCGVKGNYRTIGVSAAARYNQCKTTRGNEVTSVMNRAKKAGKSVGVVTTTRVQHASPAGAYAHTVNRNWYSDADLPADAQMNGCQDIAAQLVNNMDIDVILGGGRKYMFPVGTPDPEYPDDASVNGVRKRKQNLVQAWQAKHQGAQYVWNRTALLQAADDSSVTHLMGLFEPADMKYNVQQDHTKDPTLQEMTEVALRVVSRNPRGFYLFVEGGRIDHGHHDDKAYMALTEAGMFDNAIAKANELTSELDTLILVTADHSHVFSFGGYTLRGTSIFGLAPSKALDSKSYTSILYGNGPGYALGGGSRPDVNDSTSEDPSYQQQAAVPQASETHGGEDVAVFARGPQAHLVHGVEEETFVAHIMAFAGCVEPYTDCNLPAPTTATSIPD
Sequence of CD9(ECD)-ALP conjugate (human; bovine) (chain, as listed by the source, chain 1 of 2): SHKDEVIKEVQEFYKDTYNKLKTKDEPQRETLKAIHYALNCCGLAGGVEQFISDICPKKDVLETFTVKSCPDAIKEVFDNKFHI
Sequence of CD9(ECD)-ALP conjugate (human; bovine) (P19111 20-506, chain 2 of 2): as the sequence (P19111 20-506, chain 2 of 2) above

Count value [1]: 71600 count
Count value [2]: 1080 count
Count value [3]: 25600 count
Count value (av) [4]: 6750 count
Count value (av) [5]: 2390 count
Count value [6]: 218000 count
Count value [7]: 3830 count
Count value [8]: 36500 count
Count value [9]: 1580 count
Count value [10]: 1580 count
Count value [11]: 2300 count
Count value [12]: 26100 count
Count value [13]: 1470 count
Count value [14]: 2540 count
Count value [15]: 1560 count
Count value [16]: 11400 count
Count value [17]: 3630 count
Count value [18]: 5360 count
Count value [19]: 6810 count
Count value [20]: 24600 count
Substance: anti-CD9 antibody (Clone: H19a)
